Data reported in publication PMC12903857 (2026).
Blank lines part the entries; values can stand above or below the binder they belong to. Non-standard residues stand in square brackets, D forms with d. No end group written: not given here. pS = N[C@@H](COP(=O)(O)O)C(=O)O

B3: 14-3-3σ (natural protein)
chain: MERASLIQKAKLAEQAERYEDMAAFMKGAVEKGEELSCEERNLLSVAYKNVVGGQRAAWRVLSSIEQKSNEEGSEEKGPEVREYREKVETELQGVCDTVLGLLDSHLIKEAGDAESRVFYLKMKGDYYRYLAEVATGDDKKRIIDSARSAYQEAMDISKKEMPPTNPIRLGLALNFSVFHYEIANSPEEAISLAKTTFDEAMADLHTLSEDSYKDSTLIMQLLRDNLTLWTADNAGEEGGEAPQEPQS

Key:
14-3-3σ [1] = molecular target: B3; experiment: FP; 100 uM compound 37
14-3-3σ [2] = molecular target: B3; experiment: FP; 100 uM compound 70
14-3-3σ [3] = molecular target: B3; experiment: FP; 100 uM compound 79
14-3-3σ [4] = molecular target: B3; experiment: FP; 100 uM compound 80
14-3-3σ [5] = molecular target: B3; experiment: FP; 100 uM compound 83
14-3-3σ [6] = molecular target: B3; experiment: FP; 100 uM compound 86
[7] = molecular target: T1, 14-3-3σ covalently bound to molecular glue 23 (UniProt P31947 1-248, C38 covalently bound to compound 23 (chloroacetamide warhead)); experiment: SPR; 14-3-3σ covalently bound to molecular glue 23
T1 chain: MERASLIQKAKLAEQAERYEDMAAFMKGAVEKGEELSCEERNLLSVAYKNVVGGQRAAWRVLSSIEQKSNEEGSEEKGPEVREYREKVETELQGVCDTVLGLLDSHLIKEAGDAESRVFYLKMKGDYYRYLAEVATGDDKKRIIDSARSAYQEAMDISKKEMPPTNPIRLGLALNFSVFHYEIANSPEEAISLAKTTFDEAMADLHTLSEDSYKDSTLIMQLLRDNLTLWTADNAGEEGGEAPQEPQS

14-3-3σ [8] = molecular target: B3; experiment: FP; DMSO
14-3-3σ [9] = molecular target: B3; experiment: FP; 100 uM compound 29
14-3-3σ [10] = molecular target: B3; experiment: FP; 100 uM compound 32
14-3-3σ [11] = molecular target: B3; experiment: FP; 100 uM compound 78
14-3-3σ [12] = molecular target: B3; experiment: FP; 100 uM compound 8
14-3-3σ [13] = molecular target: B3; experiment: FP; 100 uM compound 11
14-3-3σ [14] = molecular target: B3; experiment: FP; 100 uM compound 12
14-3-3σ [15] = molecular target: B3; experiment: FP; 100 uM compound 18
14-3-3σ [16] = molecular target: B3; experiment: FP; 100 uM compound 19
14-3-3σ [17] = molecular target: B3; experiment: FP; 100 uM compound 21
14-3-3σ [18] = molecular target: B3; experiment: FP; 100 uM compound 24
14-3-3σ [19] = molecular target: B3; experiment: FP; 100 uM compound 30
14-3-3σ [20] = molecular target: B3; experiment: FP; 100 uM compound 31
14-3-3σ [21] = molecular target: B3; experiment: FP; 100 uM compound 32
14-3-3σ [22] = molecular target: B3; experiment: FP; 100 uM compound 33
14-3-3σ [23] = molecular target: B3; experiment: FP; 100 uM compound 36
14-3-3σ [24] = molecular target: B3; experiment: FP; 100 uM compound 38
14-3-3σ [25] = molecular target: B3; experiment: FP; 100 uM compound 39
14-3-3σ [26] = molecular target: B3; experiment: FP; 100 uM compound 40
14-3-3σ [27] = molecular target: B3; experiment: FP; 100 uM compound 46
14-3-3σ [28] = molecular target: B3; experiment: FP; DMSO (reference for compound 8)
14-3-3σ [29] = molecular target: B3; experiment: FP; DMSO (reference for compound 11)
14-3-3σ [30] = molecular target: B3; experiment: FP; DMSO (reference for compound 70)
14-3-3σ [31] = molecular target: B3; experiment: FP; DMSO (reference for compound 80)
14-3-3σ [32] = molecular target: B3; experiment: FP; DMSO (reference for compounds 19, 33)
14-3-3σ [33] = molecular target: B3; experiment: FP; DMSO (reference for compounds 24, 30, 31)
14-3-3σ [34] = molecular target: B3; experiment: FP; DMSO (reference for compounds 12, 18, 21, 36, 39, 40)
14-3-3σ [35] = molecular target: B3; experiment: FP; 100 uM compound 22
14-3-3σ [36] = molecular target: B3; experiment: FP; 100 uM compound 23
B-RAF 365 (10mer) [37] = molecular target: T2, B-RAF 365 (10mer) (Homo sapiens, not fully specified); experiment: FP; DMSO
T2 chain: DRSS[pS]APNVH

B-RAF 365 (10mer) [38] = molecular target: T2, B-RAF 365 (10mer); experiment: FP; 100 uM compound 23
B-RAF 365 (10mer) [39] = molecular target: T2, B-RAF 365 (10mer); experiment: FP; 100 uM compound 29
B-RAF 365 (10mer) [40] = molecular target: T2, B-RAF 365 (10mer); experiment: FP; 100 uM compound 32
B-RAF 365 (10mer) [41] = molecular target: T2, B-RAF 365 (10mer); experiment: FP; 100 uM compound 37
B-RAF 365 (10mer) [42] = molecular target: T2, B-RAF 365 (10mer); experiment: FP; 100 uM compound 86
[43] = molecular target: T3, 14-3-3σ, tagged with a Twin-Strep tag (UniProt P31947 1-248); experiment: SPR
T3 chain: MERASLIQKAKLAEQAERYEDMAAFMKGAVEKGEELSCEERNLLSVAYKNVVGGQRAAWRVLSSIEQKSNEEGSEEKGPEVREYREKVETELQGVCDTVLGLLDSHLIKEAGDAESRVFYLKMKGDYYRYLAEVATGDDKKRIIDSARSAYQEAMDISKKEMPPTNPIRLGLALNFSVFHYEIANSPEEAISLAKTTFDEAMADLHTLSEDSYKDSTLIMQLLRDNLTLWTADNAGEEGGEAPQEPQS

Kd [7]: 1.2 nM
B1: acetylated 12-mer C-RAF peptide (peptide)
chain: QRSTSTPNVHMV
modifications: not fully specified (residue 5, N-terminus); also: phosphoserine at 259, position in chain not mapped

Kd [43]: 2000 nM | Kd [7]: 1.7 nM
B4: acetylated 12-mer A-RAF peptide (peptide)
chain: IRSTSTPNVHMV
modifications: not fully specified (residue 5, N-terminus); also: phosphoserine at 214, position in chain not mapped

Kd [7]: 6.3 nM
B5: acetylated 12-mer B-RAF peptide (peptide)
chain: DRSSSAPNVHIN
modifications: not fully specified (residue 5, N-terminus); also: phosphoserine at 365, position in chain not mapped

The next lines start with the binder.

Binder: SQRQRSTSTPNVHMV (also: phosphoserine at S259, site in chain not given here) [15-mer C-RAF peptide]
Kd (14-3-3σ [1]): 136 nM | Kd (14-3-3σ [2]): 100 nM | Kd (14-3-3σ [3]): 135 nM | Kd (14-3-3σ [4]): 332 nM | Kd (14-3-3σ [5]): 145 nM | Kd (14-3-3σ [6]): 140 nM

Binder: GQRDRSSSAPNVHIN (also: phosphoserine at S365, site in chain not given here) [15-mer B-RAF peptide]
Kd (14-3-3σ [8]): 2240 nM | Kd (14-3-3σ [9]): 14 nM | Kd (14-3-3σ [10]): 245 nM | Kd (14-3-3σ [1]): 25 nM | Kd (14-3-3σ [2]): 70 nM | Kd (14-3-3σ [11]): 55 nM | Kd (14-3-3σ [3]): 60 nM | Kd (14-3-3σ [4]): 220 nM | Kd (14-3-3σ [5]): 94 nM | Kd (14-3-3σ [6]): 95 nM

B2: FAM-labeled C-RAF259 peptide (10-mer) (peptide)
chain: QRSTSTPNVH
modifications: also: phosphoserine at S259, site in chain not given here, FAM label, site not given here
Kd (14-3-3σ [12]): 6600 nM | Kd (14-3-3σ [13]): 400 nM | Kd (14-3-3σ [14]): 190 nM | Kd (14-3-3σ [15]): 280 nM | Kd (14-3-3σ [16]): 213 nM | Kd (14-3-3σ [17]): 480 nM | Kd (14-3-3σ [18]): 110 nM | Kd (14-3-3σ [19]): 780 nM | Kd (14-3-3σ [20]): 1420 nM | Kd (14-3-3σ [21]): 140 nM | Kd (14-3-3σ [22]): 230 nM | Kd (14-3-3σ [23]): 240 nM | Kd (14-3-3σ [24]): 218 nM | Kd (14-3-3σ [25]): 420 nM | Kd (14-3-3σ [26]): 320 nM | Kd (14-3-3σ [27]): 170 nM | Kd (14-3-3σ [4]): 420 nM | Kd (14-3-3σ [5]): 102 nM | Kd (14-3-3σ [28]): 6700 nM | Kd (14-3-3σ [29]): 1320 nM | Kd (14-3-3σ [30]): 5510 nM | Kd (14-3-3σ [31]): 4600 nM | Kd (14-3-3σ [32]): 3050 nM | Kd (14-3-3σ [33]): 2280 nM | Kd (14-3-3σ [34]): 4200 nM

Binder: LQRIRSTSTPNVHMV (also: phosphoserine at S214, site in chain not given here) [15-mer A-RAF peptide]
Kd (14-3-3σ [35]): 9 nM | Kd (14-3-3σ [36]): 5 nM | Kd (14-3-3σ [9]): 30 nM | Kd (14-3-3σ [10]): 50 nM | Kd (14-3-3σ [1]): 25 nM | Kd (14-3-3σ [2]): 110 nM | Kd (14-3-3σ [11]): 120 nM | Kd (14-3-3σ [3]): 115 nM | Kd (14-3-3σ [4]): 1100 nM | Kd (14-3-3σ [5]): 265 nM | Kd (14-3-3σ [6]): 140 nM

Binder: B3
Kd (B-RAF 365 (10mer) [37]): 650 nM | Kd (B-RAF 365 (10mer) [38]): 105 nM | Kd (B-RAF 365 (10mer) [39]): 140 nM | Kd (B-RAF 365 (10mer) [40]): 112 nM | Kd (B-RAF 365 (10mer) [41]): 52 nM | Kd (B-RAF 365 (10mer) [42]): 155 nM
